Patent publication US20220363770A1 (Amgen, published 2022)
Substitutions are numbered along the chain they refer to.

B1: iPS:454793 (bispecific antibody, human IgG1, kappa, lambda, N297G)
light 1: QSVLTQPPSVSAAPGQKVTISCSGSRSNIGIKAVSWYQQLPGTAPKLLIYDNNKRPSGIPDRFSGSKSGTSATLGITGLQTGDEADYYCGTWDSRLSAVVFGGGTKLTVLGQPKAAPSVTLFPPSSEELQANKATLVCLISDFYPGAVTVAWKADSSPVKAGVETTTPSKQSNNKYAAKSYLSLTPEQWKSHRSYSCQVTHEGSTVEKTVAPTECS
heavy 1: QVQLVESGGGVVQPGRSLRLSCAASGFTFSSFGMHWVRQAPGKGLEWVAVISFDGSIKYSVDSVKGRFTISRDNSKNTLFLQMNSLRAEDTAVYYCARDRLNYYESSGYYHYKYYGMAVWGQGTTVTVSSASTKGPSVFPLAPSSKSTSGGTAALGCLVKDYFPEPVTVSWNSGALTSGVHTFPAVLQSSGLYSLESVVTVPSSSLGTQTYICNVNHKPSNTKVDKKVEPKSCDKTHTCPPCPAPELLGGPSVFLFPPKPKDTLMISRTPEVTCVVVDVSHEDPEVKFNWYVDGVEVHNAKTKPCEEQYGSTYRCVSVLTVLHQDWLNGKEYKCKVSNKALPAPIEKTISKAKGQPREPQVYTLPPSRKKMTKNQVSLTCLVKGFYPSDIAVEWESNGQPENNYKTTPPVLKSDGSFFLYSKLTVDKSRWQQGNVFSCSVMHEALHNHYTQKSLSLSPGK
light 2: EIVLTQSPATLSLSPGERATLSCRASKSVGQSLHWYQQKPGQAPRLLIKYASQSLSGIPARFSGSGSGTDFTLTISSLEPEDFAVYYCHQSSRLPFTFGPGTKVDIKRTVAAPSVFIFPPSDEQLKSGTASVVCLLNNFYPREAKVQWKVDNALQSGNSQESVTEQDSKDSTYSLESTLTLSKADYEKHKVYACEVTHQGLSSPVTKSFNRGEC
heavy 2: not shown
B2: iPS:454823 (bispecific antibody, human IgG1, kappa, lambda, N297G)
light 1: B1 light 1
heavy 1: B1 heavy 1
light 2: B1 light 2 with Q31R
heavy 2: not shown
B3: iPS:454799 (bispecific antibody, human IgG1, kappa, lambda, N297G)
light 1: B1 light 1
heavy 1: B1 heavy 1
light 2: B1 light 2
heavy 2: not shown
B4: iPS:454803 (bispecific antibody, human IgG1, kappa, lambda, N297G)
light 1: B1 light 1
heavy 1: B1 heavy 1
light 2: B1 light 2 with Q31W
heavy 2: not shown
B5: iPS:454827 (bispecific antibody, human IgG1, kappa, lambda, N297G)
light 1: B1 light 1
heavy 1: B1 heavy 1
light 2: B1 light 2 with K27Q, Q31R
heavy 2: not shown
B6: iPS:454829 (bispecific antibody, human IgG1, kappa, lambda, N297G)
light 1: B1 light 1
heavy 1: B1 heavy 1
light 2: B1 light 2 with K27Q, Q31R
heavy 2: not shown
B7: iPS:454801 (bispecific antibody, human IgG1, kappa, lambda, N297G)
light 1: B1 light 1
heavy 1: B1 heavy 1
light 2: B1 light 2
heavy 2: not shown
B8: iPS:454821 (bispecific antibody, human IgG1, kappa, lambda, N297G)
light 1: B1 light 1
heavy 1: B1 heavy 1
light 2: B1 light 2 with Q31R
heavy 2: not shown
B9: iPS:454797 (bispecific antibody, human IgG1, kappa, lambda, N297G)
light 1: B1 light 1
heavy 1: B1 heavy 1
light 2: B1 light 2 with K27R, Q31L, S32A, R93F
heavy 2: not shown
B10: iPS:454813 (bispecific antibody, human IgG1, kappa, lambda, N297G)
light 1: B1 light 1
heavy 1: B1 heavy 1
light 2: B1 light 2 with Q31R
heavy 2: not shown
B11: iPS:454809 (bispecific antibody, human IgG1, kappa, lambda, N297G)
light 1: B1 light 1
heavy 1: B1 heavy 1
light 2: B1 light 2 with S28A, Q31F, R93F
heavy 2: not shown
B12: iPS:454819 (bispecific antibody, human IgG1, kappa, lambda, N297G)
light 1: B1 light 1
heavy 1: B1 heavy 1
light 2: B1 light 2 with Q31R
heavy 2: not shown
B13: iPS:454815 (bispecific antibody, human IgG1, kappa, lambda, N297G)
light 1: B1 light 1
heavy 1: B1 heavy 1
light 2: B1 light 2 with Q31R
heavy 2: not shown
B14: iPS:454825 (bispecific antibody, human IgG1, kappa, lambda, N297G)
light 1: B1 light 1
heavy 1: B1 heavy 1
light 2: B1 light 2 with Q31R
heavy 2: not shown
B15: iPS:454807 (bispecific antibody, human IgG1, kappa, lambda, N297G)
light 1: B1 light 1
heavy 1: B1 heavy 1
light 2: B1 light 2
heavy 2: not shown
B16: iPS:454805 (bispecific antibody, human IgG1, kappa, lambda, N297G)
light 1: B1 light 1
heavy 1: B1 heavy 1
light 2: B1 light 2
heavy 2: not shown
B17: iPS:454817 (bispecific antibody, human IgG1, kappa, lambda, N297G)
light 1: B1 light 1
heavy 1: B1 heavy 1
light 2: B1 light 2 with Q31R
heavy 2: not shown
B18: iPS:454811 (bispecific antibody, human IgG1, kappa, lambda, N297G)
light 1: B1 light 1
heavy 1: B1 heavy 1
light 2: EIVLTQSPATLSLSPGERATLSCRASRAVSNLHWYQQKPGQAPRLLIKYASQSLSGIPARFSGSGSGTDFTLTISSLEPEDFAVYYCHQSSYLPFTFGPGTKVDIKRTVAAPSVFIFPPSDEQLKSGTASVVCLLNNFYPREAKVQWKVDNALQSGNSQESVTEQDSKDSTYSLESTLTLSKADYEKHKVYACEVTHQGLSSPVTKSFNRGEC
heavy 2: not shown
B19: iPS:454795 (bispecific antibody, human IgG1, kappa, lambda, N297G)
light 1: B1 light 1
heavy 1: B1 heavy 1
light 2: B1 light 2 with S28A, G30W, Q31H, S32N, R93M
heavy 2: not shown

Target: human CGRP receptor (human, UniProt Q16602 23-461; O60894 27-148)
Assay: cell-based or functional assay

Chain of human CGRP receptor (Q16602 23-461 limits assumed, chain 1 of 2): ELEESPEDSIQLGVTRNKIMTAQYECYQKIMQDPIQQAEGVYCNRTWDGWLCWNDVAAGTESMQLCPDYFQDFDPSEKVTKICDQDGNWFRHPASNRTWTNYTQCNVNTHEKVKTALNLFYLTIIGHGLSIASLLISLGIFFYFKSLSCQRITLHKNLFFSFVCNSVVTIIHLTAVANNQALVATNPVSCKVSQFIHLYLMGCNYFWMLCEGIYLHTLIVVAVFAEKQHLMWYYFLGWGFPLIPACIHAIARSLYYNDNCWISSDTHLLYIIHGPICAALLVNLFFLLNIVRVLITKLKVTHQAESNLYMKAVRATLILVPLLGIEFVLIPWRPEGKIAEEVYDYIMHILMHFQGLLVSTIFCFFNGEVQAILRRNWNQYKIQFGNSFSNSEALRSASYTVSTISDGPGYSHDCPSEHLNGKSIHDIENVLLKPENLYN
Chain of human CGRP receptor (O60894 27-148 limits assumed, chain 2 of 2): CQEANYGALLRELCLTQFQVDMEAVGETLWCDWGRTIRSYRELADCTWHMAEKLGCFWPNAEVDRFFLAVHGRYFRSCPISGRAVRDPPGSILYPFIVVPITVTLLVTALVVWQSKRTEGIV

Binder | Fold-improvement over 4E4 Ab [fold] | IC50 [pM]
B1 | 1.3 | 390
B2 | 1.5 | 390
B3 | 1.6 | 320
B4 | 1.2 | 440
B5 | 1.7 | 340
B6 | 1.8 | 360
B7 | 1.2 | 440
B8 | 1.5 | 390
B9 | 2.6 | 200
B10 | 0.8 | 610
B11 | 0.8 | 640
B12 | 1.8 | 330
B13 | 1.6 | 370
B14 | 2 | 290
B15 | 0.9 | 560
B16 | 1 | 520
B17 | 1.7 | 330
B18 | 1 | 530
B19 | 1.4 | 370

Target: T1, human PAC1 receptor (human, UniProt P41586 24-468)
T1 sequence: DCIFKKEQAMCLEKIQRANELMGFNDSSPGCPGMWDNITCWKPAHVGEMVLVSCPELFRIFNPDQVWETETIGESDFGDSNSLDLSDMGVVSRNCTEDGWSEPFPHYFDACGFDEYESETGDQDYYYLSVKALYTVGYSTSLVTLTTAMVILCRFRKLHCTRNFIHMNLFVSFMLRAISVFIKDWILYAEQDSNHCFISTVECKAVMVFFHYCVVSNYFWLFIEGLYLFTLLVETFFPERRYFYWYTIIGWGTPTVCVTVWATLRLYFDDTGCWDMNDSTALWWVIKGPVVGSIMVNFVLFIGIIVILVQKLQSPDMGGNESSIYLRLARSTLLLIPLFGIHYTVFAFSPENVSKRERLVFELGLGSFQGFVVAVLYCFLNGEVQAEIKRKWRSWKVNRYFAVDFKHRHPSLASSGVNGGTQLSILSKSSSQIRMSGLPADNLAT
Assay: cell-based or functional assay

Binder | Fold-improvement over 29G4v22 Ab [fold] | IC50 [pM]
B1 | 6 | 1090
B2 | 8.3 | 800
B3 | 4.1 | 1590
B4 | 8.7 | 920
B5 | 8.9 | 750
B6 | 9.8 | 700
B7 | 4.4 | 1820
B8 | 9.2 | 720
B9 | 5.4 | 1210
B10 | 9.9 | 810
B11 | 4 | 2010
B12 | 9.6 | 690
B13 | 10.1 | 650
B14 | 8.4 | 790
B15 | 5.4 | 1480
B16 | 6.9 | 1160
B17 | 10.7 | 620
B18 | 2.8 | 2850
B19 | 2 | 3260
